Test results reported in patent US20250277020A1 (Boehringer Ingelheim, published 2025).
Changes are numbered by the printed parent chain. One block for each binder: values may come before it.

Biological target: T1, Full-length human CTGF (human, UniProt P29279 27-349)
T1 construct: Corresponds to NCBI NP_001892.1 with the signal peptide omitted; purchased from R&D Systems; also called hCTGF full length; full length CTGF
T1 sequence: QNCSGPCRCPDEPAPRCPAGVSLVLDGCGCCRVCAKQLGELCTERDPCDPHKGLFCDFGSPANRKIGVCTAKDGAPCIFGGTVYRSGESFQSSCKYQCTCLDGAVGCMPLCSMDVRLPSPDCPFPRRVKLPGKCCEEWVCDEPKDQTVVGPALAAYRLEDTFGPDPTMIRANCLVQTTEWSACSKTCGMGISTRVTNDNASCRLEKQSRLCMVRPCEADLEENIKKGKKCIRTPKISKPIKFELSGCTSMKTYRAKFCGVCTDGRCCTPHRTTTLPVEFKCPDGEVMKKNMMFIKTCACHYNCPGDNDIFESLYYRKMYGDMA
Experiment: SPR, full length CTGF

B1: A105 (antibody, human IgG1, kappa, L234A L235A)
light: DIVMTQTPLSLSVSLGDQASISCKSSQSIVHYNGNTYLEWYLQKPGQSPQLLIYKVSSRASGVPDRFSGSGSGTDFTLKISRVEAEDLGVYYCFQGSHFPLTFGQGTKLEIKRTVAAPSVFIFPPSDEQLKSGTASVVCLLNNFYPREAKVQWKVDNALQSGNSQESVTEQDSKDSTYSLSSTLTLSKADYEKHKVYACEVTHQGLSSPVTKSFNRGEC
heavy: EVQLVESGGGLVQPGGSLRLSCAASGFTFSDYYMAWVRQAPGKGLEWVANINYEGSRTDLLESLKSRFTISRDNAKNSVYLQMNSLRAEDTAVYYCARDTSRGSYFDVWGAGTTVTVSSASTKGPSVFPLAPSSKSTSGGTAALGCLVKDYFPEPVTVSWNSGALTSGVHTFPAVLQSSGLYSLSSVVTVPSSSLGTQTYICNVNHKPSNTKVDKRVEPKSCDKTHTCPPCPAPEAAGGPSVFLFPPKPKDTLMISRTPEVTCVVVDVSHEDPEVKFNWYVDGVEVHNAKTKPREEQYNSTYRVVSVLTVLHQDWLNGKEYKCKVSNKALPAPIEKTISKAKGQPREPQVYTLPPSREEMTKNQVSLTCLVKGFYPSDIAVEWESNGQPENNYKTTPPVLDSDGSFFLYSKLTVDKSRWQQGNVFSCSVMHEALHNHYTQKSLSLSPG
Kd: 0.42 nM

B4: A106 (antibody, human IgG1, kappa, L234A L235A)
light: B1 light
heavy: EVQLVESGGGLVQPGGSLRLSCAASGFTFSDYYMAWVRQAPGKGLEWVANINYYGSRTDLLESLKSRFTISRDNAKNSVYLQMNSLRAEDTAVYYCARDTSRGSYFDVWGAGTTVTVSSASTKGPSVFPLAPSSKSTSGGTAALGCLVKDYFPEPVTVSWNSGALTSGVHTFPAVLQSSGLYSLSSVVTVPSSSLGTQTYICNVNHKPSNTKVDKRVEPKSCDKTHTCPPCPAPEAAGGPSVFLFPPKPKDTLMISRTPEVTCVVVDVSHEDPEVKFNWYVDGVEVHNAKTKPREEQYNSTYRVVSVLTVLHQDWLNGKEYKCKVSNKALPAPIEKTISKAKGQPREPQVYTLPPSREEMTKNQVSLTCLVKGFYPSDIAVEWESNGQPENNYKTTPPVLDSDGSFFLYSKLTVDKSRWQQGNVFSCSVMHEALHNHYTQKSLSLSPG
Kd: 0.43 nM

B6: A108 (antibody, human IgG1, kappa, L234A L235A)
light: B1 light
heavy: not shown
Kd: 0.42 nM

B8: A127 (antibody, human IgG1, kappa, L234A L235A, V domains shown)
VH: EVQLVESGGGLVQPGGSLRLSCAASGFTFSDYYMAWVRQAPGKGLEWVANINYDGSRTDLLESLKSRFTISRDNAKNSVYLQMNSLRAEDTAVYYCARDTSRGSYFDVWGAGTTVTVSS
VL: VVMTQTPLSLPVSLGDQASISCRSSQSIVHYNGNTYLEWYLQKPGQSPQLLIYKVSNRDSGVPDRFSGSGSGTDFTLKISRVEAEDLGVYYCFQGSHFPLTFGQGTKLEIKR
Kd: 0.28 nM

B9: A121 (antibody, human IgG1, kappa, L234A L235A, V domains shown)
VH: B8 VH with D54E
VL: B8 VL
Kd: 0.24 nM

B10: A128 (antibody, human IgG1, kappa, L234A L235A)
light: VVMTQTPLSLPVSLGDQASISCRSSQSIVHYNGNTYLEWYLQKPGQSPQLLIYKVSNRDSGVPDRFSGSGSGTDFTLKISRVEAEDLGVYYCFQGSHFPLTFGQGTKLEIKRTVAAPSVFIFPPSDEQLKSGTASVVCLLNNFYPREAKVQWKVDNALQSGNSQESVTEQDSKDSTYSLSSTLTLSKADYEKHKVYACEVTHQGLSSPVTKSFNRGEC
heavy: not shown
notes: humanized from the 15 pM mouse clone; also called humanized antibody A128
Kd: 0.27 nM

B11: A99 (antibody, human IgG1, kappa, L234A L235A)
light: B10 light with P11S, R23K, N57S, D59A
heavy: not shown
Kd: 0.11 nM

B13: A103 (antibody, human IgG1, kappa, L234A L235A)
light: B10 light with P11S, R23K, N57S, D59A
heavy: not shown
Kd: 0.15 nM

B14: A90 (antibody, human IgG1, kappa, L234A L235A, V domains shown)
VH: B8 VH with D54Y
VL: B8 VL with P11S, R23K, N57S, D59F
Kd: 0.17 nM

B15: A104 (antibody, human IgG1, kappa, L234A L235A)
light: B10 light with P11S, R23K, N57S, D59A
heavy: not shown
Kd: 0.17 nM

B16: A89 (antibody, human IgG1, kappa, L234A L235A, V domains shown)
VH: B8 VH with D54E
VL: B8 VL with P11S, R23K, N57S, D59F
Kd: 0.16 nM

B17: A92 (antibody, human IgG1, kappa, L234A L235A, V domains shown)
VH: B8 VH with D54Y, E62A
VL: B8 VL with P11S, R23K, N57S, D59F
Kd: 0.16 nM

B19: A85 (antibody, human IgG1, kappa, L234A L235A)
light: B10 light with G33E, N34K, D59F
heavy: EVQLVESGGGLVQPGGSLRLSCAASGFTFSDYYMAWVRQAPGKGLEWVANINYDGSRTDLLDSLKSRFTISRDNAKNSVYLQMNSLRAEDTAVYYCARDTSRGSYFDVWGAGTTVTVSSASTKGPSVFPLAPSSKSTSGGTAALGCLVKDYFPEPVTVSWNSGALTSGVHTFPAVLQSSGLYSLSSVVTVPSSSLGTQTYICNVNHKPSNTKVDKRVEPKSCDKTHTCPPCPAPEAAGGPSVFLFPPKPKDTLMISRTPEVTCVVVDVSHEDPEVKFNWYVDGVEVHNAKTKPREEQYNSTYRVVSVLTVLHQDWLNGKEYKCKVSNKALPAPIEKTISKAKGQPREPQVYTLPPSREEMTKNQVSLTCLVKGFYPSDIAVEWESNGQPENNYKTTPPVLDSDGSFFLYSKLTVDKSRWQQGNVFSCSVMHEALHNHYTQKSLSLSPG
Kd: 0.28 nM

B20: A91 (antibody, human IgG1, kappa, L234A L235A, V domains shown)
VH: B8 VH with D54E, E62A
VL: B8 VL with P11S, R23K, N57S, D59F
Kd: 0.13 nM

B21: A122 (antibody, human IgG1, kappa, L234A L235A, V domains shown)
VH: B8 VH with D54Y
VL: B8 VL
Kd: 0.23 nM

B22: A124 (antibody, human IgG1, kappa, L234A L235A, V domains shown)
VH: B8 VH with D54Y, E62A
VL: B8 VL
Kd: 0.25 nM

B24: A100 (antibody, human IgG1, kappa, L234A L235A)
light: B10 light with P11S, R23K, N57S, D59A
heavy: not shown
Kd: 0.13 nM

B25: A101 (antibody, human IgG1, kappa, L234A L235A)
light: B10 light with P11S, R23K, N57S, D59A
heavy: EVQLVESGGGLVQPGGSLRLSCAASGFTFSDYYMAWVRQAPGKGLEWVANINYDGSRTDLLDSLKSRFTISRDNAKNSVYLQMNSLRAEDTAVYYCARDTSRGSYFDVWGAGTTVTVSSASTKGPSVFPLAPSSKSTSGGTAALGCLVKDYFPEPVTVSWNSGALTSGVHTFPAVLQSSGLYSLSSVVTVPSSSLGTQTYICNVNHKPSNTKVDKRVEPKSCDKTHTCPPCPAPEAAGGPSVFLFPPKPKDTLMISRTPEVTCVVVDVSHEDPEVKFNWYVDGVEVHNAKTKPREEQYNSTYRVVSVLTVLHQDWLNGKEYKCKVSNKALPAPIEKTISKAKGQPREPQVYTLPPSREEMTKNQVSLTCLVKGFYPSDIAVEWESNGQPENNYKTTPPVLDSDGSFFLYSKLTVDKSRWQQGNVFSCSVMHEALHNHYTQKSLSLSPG
Kd: 0.17 nM

B26: A98 (antibody, human IgG1, kappa, L234A L235A)
light: B10 light with P11S, R23K, N57S, D59A
heavy: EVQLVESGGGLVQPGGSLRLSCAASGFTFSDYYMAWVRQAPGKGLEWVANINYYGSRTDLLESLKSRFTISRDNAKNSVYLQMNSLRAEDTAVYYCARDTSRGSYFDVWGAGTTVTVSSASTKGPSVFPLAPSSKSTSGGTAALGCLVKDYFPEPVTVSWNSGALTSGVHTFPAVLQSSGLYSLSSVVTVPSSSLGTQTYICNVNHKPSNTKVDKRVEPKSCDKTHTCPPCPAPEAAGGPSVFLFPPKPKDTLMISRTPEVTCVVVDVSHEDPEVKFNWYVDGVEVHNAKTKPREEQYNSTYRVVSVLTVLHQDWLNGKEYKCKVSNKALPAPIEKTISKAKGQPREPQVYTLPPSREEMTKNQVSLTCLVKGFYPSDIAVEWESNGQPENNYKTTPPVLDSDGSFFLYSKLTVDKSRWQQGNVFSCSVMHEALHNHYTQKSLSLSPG
Kd: 0.12 nM

B27: A95 (antibody, human IgG1, kappa, L234A L235A, V domains shown)
VH: B8 VH
VL: B8 VL with P11S, R23K, N57S, D59F
Kd: 0.19 nM

B30: A93 (antibody, human IgG1, kappa, L234A L235A)
light: B10 light with P11S, R23K, N57S, D59F
heavy: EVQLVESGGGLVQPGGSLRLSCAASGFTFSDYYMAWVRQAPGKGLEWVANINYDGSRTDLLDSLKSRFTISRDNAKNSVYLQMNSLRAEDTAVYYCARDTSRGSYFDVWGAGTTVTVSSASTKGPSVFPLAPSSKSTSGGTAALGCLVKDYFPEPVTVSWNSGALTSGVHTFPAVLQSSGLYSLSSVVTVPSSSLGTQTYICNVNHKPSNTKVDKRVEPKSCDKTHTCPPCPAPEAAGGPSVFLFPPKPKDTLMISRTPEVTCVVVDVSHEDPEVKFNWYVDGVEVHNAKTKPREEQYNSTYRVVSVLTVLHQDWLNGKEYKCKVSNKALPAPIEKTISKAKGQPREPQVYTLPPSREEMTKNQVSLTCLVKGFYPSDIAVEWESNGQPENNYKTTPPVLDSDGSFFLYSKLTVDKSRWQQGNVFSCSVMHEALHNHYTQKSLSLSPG
Kd: 0.18 nM

B31: A84 (antibody, human IgG1, kappa, L234A L235A, V domains shown)
VH: B8 VH with D54Y, E62A
VL: B8 VL with G33E, N34K, D59F
Kd: 0.29 nM

B34: A96 (antibody, human IgG1, kappa, L234A L235A)
light: B10 light with P11S, R23K, N57S, D59F
heavy: not shown
Kd: 0.19 nM

More lines, in order of falling Kd, values ahead:

Kd: 0.45 nM
B2: A110 (antibody, human IgG1, kappa, L234A L235A)
light: B1 light
heavy: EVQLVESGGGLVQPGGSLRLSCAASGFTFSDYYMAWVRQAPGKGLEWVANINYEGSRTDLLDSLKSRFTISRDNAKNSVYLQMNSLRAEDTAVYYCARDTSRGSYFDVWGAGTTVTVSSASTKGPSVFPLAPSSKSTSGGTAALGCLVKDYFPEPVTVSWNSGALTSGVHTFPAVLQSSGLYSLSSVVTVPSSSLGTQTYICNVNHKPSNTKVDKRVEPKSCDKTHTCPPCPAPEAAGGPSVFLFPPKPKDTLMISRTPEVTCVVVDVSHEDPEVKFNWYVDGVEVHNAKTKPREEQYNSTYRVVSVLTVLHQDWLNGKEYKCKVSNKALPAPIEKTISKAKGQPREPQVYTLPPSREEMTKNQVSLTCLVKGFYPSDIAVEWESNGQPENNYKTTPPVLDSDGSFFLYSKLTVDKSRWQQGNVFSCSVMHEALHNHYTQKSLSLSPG

Kd: 0.44 nM
B5: A109 (antibody, human IgG1, kappa, L234A L235A)
light: B1 light
heavy: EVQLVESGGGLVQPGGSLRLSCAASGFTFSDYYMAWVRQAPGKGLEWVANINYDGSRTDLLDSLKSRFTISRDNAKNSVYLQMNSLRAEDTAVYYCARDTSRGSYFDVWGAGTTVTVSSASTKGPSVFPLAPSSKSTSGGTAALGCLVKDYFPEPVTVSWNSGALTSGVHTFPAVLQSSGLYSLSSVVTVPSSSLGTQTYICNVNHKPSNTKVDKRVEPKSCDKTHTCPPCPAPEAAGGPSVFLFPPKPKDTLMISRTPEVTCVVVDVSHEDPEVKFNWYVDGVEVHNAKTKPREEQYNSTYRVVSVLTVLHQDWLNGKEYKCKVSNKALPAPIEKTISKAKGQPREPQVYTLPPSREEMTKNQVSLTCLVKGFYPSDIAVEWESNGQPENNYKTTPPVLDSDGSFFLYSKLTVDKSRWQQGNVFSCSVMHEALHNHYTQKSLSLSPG

Kd: 0.37 nM
B3: A107 (antibody, human IgG1, kappa, L234A L235A)
light: B1 light
heavy: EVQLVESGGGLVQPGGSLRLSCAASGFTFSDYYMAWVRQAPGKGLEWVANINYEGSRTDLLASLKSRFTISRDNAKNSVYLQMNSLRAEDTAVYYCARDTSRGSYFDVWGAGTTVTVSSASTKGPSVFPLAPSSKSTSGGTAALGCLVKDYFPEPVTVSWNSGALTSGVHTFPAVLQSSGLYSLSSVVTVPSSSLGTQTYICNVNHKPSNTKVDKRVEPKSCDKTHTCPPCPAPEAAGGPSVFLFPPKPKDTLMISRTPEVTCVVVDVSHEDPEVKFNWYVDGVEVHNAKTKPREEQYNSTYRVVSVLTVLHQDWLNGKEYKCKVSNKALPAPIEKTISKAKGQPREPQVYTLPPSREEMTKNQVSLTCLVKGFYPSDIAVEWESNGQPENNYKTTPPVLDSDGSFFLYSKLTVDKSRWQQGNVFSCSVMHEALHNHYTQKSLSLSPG

Kd: 0.34 nM
B33: A87 (antibody, human IgG1, kappa, L234A L235A, V domains shown)
VH: B8 VH
VL: B8 VL with G33E, N34K, D59F

Kd: 0.32 nM
B23: A88 (antibody, human IgG1, kappa, L234A L235A)
light: B10 light with G33E, N34K, D59F
heavy: not shown

Kd: 0.27 nM
B32: A126 (antibody, human IgG1, kappa, L234A L235A, V domains shown)
VH: B8 VH with D54E, E62D
VL: B8 VL

Kd: 0.26 nM
B7: A83 (antibody, human IgG1, kappa, L234A L235A, V domains shown)
VH: B8 VH with D54E, E62A
VL: B8 VL with G33E, N34K, D59F

Kd: 0.26 nM
B18: A125 (antibody, human IgG1, kappa, L234A L235A)
light: B10 light
heavy: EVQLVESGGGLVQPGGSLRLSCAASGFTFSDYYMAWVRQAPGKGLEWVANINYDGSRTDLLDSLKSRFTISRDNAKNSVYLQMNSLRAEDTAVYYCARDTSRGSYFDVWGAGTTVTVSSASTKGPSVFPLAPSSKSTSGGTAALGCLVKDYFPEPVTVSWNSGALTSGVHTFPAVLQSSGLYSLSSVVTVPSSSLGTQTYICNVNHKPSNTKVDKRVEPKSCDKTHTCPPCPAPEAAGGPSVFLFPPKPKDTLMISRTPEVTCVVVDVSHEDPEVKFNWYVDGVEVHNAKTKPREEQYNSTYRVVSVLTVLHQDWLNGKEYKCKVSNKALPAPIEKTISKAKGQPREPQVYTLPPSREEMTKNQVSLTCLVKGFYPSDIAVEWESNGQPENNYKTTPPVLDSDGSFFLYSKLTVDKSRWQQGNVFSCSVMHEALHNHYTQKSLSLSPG

Kd: 0.21 nM
B12: A123 (antibody, human IgG1, kappa, L234A L235A, V domains shown)
VH: B8 VH with D54E, E62A
VL: B8 VL

Kd: 0.19 nM
B28: A94 (antibody, human IgG1, kappa, L234A L235A, V domains shown)
VH: B8 VH with D54E, E62D
VL: B8 VL with P11S, R23K, N57S, D59F

Kd: 0.15 nM
B29: A102 (antibody, human IgG1, kappa, L234A L235A)
light: B10 light with P11S, R23K, N57S, D59A
heavy: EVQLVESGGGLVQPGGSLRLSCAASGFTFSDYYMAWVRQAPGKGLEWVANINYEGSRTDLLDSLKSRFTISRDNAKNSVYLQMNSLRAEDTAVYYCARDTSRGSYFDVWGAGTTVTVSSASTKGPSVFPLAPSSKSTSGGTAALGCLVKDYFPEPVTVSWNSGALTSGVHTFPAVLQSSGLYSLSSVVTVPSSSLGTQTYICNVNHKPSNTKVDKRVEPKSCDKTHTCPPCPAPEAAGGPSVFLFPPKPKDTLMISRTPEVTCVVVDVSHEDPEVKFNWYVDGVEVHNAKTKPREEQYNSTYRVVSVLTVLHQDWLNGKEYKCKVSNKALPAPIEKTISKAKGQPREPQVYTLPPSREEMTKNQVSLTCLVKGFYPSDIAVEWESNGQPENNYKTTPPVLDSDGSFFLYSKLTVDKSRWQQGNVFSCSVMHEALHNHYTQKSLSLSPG
